B1: humanized anti-PDGF-CC antibody 6B3 (hu6B3), heavy chain R30 (antibody, V domains shown)
VH: QVQLVQSGAEVKKPGASVKVSCKASGYTFRSYGITWVRQATGQGLEWMGEIYPRSGKTGYAQKFQGRVTMTADTSTSTVYMELRSLRSEDSAVYFCAREGYGYDGGYFDYWGQGTLVTVSS
VL: DIVMTQSPSSLAMSVGERATINCKSSQSLLNSRNQKNYLAWYQQKPGQPPKLLIYFASTRESGVPDRFSGSGSGTDFTLTISSVQAEDVAVYYCQQHYSTPLTFGGGTKVELKR
notes: Human IgG1 kappa as the final form; also called hu6B3 R; hu6B3 R30
B2: monoclonal antibody 6B3 (antibody, mouse IgG2a, V domains shown)
VH: QVQLQQSGVEVARPGASVKLSCKASGYTFRSYGITWVRQRTGQGLEWIGEIYPRSGKTYYNEKFKGKATLTADTSSSTVYMELRSLTSEDSAVYFCAREGYGYDGGYFDYWGQGTTLTVSS
VL: DIVMTQSPSSLAMSVGQKVTMSCKSSQSLLNSRNQKNYLAWYQQKPGQSPKLLVYFASTRESGVPDRFTGSGSGTDFTLTISSVQAEDLAVYYCQQHYSTPLTFGAGTKLELKR
notes: The variable domains are identical to those of 19C7; also called mu6B3; murine 6B3
B3: monoclonal antibody 11F5 (antibody, mouse IgG2a, V domains shown)
VH: QVQLQQSGAELARPGASVKLSCKASGYIFISYGISWVKQRTGQGLEWIGEIYPRSGKTYYNEKFKDKAALTADKSSSIAYMELRSLTSEDSAVYFCAREGYGYDGGYFDYWGQGTILTVSS
VL: DIVMTQSPSSLAMSVGQKVAVSCKSSQSLLNSSNQKNYLAWYQQKPGQSPKLLVYFASTRDSGVPDRFTGSGSGTDFTLTISSVQAEDLAVYYCQQHYSTPLTFGAGTKLELKR
notes: Murine IgG2a, kappa light chain
B4: monoclonal antibody 19C7 (antibody, mouse IgG2a, V domains shown)
VH: QVQLQQSGVEVARPGASVKLSCKASGYTFRSYGITWVRQRTGQGLEWIGEIYPRSGKTYYNEKFKGKATLTADTSSSTVYMELRSLTSEDSAVYFCAREGYGYDGGYFDYWGQGTTLTVSS
VL: DIVMTQSPSSLAMSVGQKVTMSCKSSQSLLNSRNQKNYLAWYQQKPGQSPKLLVYFASTRESGVPDRFTGSGSGTDFTLTISSVQAEDLAVYYCQQHYSTPLTFGAGTKLELKR
notes: as for B3
B5: chimeric anti-PDGF-CC antibody 6B3 (ch6B3) (antibody, V domains shown)
VH: QVQLQQSGVEVARPGASVKLSCKASGYTFGSYGITWVRQRTGQGLEWIGEIYPRSGKTYYNEKFKGKATLTADTSSSTVYMELRSLTSEDSAVYFCAREGYGYDGGYFDYWGQGTTLTVSS
VL: DIVMTQSPSSLAMSVGQKVTMSCKSSQSLLNSRNQKNYLAWYQQKPGQSPKLLVYFASTRESGVPDRFTGSGSGTDFTLTISSVQAEDLAVYYCQQHYSTPLTFGAGTKLELKR
notes: also called chimeric 6B3; mouse-human chimeric antibody 6B3
B6: Peptide 3 (SVSIREELKRTDTIFWPGC) (peptide)
peptide: SVSIREELKRTDTIFWPGC
notes: Synthetic peptide; also called PDGFC peptide 3
B7: monoclonal antibody 12F5 (antibody, mouse IgG2a, V domains shown)
VH: EVKLEESGGGLVQPGGSRELSCEGSGFTFSGFWMSWVRQTPGKTLEWIGDINSDGSAIIYAPSIKDRFTIFRDNDKSTLYLQMNNVRSEDTATYFCMRWGYYGSNYFDYWGQGTTLTVSS
VL: DVVMTQTPLSLPVSLGDQASISCRSSQSIVHSNGNTYLHWYLQKPGQSPKLLIYRVSNRFSGVPDRFSGSGSGTDFTLKISRVEAEDMGVYYCFQGTHVPFTFGSGTKLEIKR
notes: Murine IgG2a, kappa light chain; also called anti-PDGF-CC mAb 12F5

How the values were obtained:
[1] = target: T1, recombinant human PDGF-AA (human, UniProt P04085 87-211); assay: ELISA on coated PDGF-AA, -BB, -CC, -DD and BSA
T1 construct: Bought; The construct is not described

[2] = target: T2, recombinant human PDGF-BB (human, UniProt P01127 82-190); assay: ELISA on coated PDGF-AA, -BB, -CC, -DD and BSA
T2 construct: Bought; The construct is not described; also called PB
T2 sequence (P01127 82-190): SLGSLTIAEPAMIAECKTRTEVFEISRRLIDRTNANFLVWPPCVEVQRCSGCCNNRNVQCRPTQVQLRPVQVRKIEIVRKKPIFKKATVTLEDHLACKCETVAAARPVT

[3] = target: T3, recombinant human PDGF-CC active core domain protein with terminal histidine tag (human, UniProt Q9NRA1 231-345); assay: ELISA on coated PDGF-AA, -BB, -CC, -DD and BSA
T3 construct: Made in baculovirus-infected Sf9 cells; The position of the tag in the chain is not known; also called RhPC; RhPCc; not shown: terminal histidine tag
T3 sequence (Q9NRA1 231-345 limits assumed): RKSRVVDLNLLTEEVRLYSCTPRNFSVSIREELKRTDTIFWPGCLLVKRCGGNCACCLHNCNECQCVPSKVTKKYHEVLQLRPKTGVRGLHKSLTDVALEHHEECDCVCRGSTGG

[4] = target: T4, recombinant human PDGF-DD (human, UniProt Q9GZP0 250-370, limits assumed); assay: ELISA on coated PDGF-AA, -BB, -CC, -DD and BSA
T4 construct: The construct is not described; also called PDGF-D polypeptide; PDGF-DD (R&D)
T4 sequence (Q9GZP0 250-370 limits assumed): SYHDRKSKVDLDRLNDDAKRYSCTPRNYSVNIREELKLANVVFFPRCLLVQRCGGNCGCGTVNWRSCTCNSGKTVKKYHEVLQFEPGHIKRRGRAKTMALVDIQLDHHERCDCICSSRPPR

[5] = target: T5, corresponding PDGF-D peptide SVNIREELKC (human); assay: Biacore, 6B3 over thiol-immobilised peptide
T5 construct: Synthesised with a C-terminal cysteine; also called alternate peptide
T5 peptide: SVNIREELKC
Experimental: Samples of 6B3 antibody (1.334 μM) was injected (30 μL at 10 μL/min) in HBS buffer over the immobilized peptides.

[6] = target: B6; assay: SPR, 6B3 (20.8 nM-667 nM) over thiol-immobilised peptide 3
Experimental: Peptide 3 was immobilized on channel 4 of the carboxymethyldextran-coated sensor chip using thiol chemistry. Briefly, the chip was activated on channel 4 using standard amine coupling chemistry (0.05M NHS/0.2M EDC) followed by 80 mM (2-(2-pyridinyldithio)ethane amine (PDEA) in 1M borate PH 8.2. Peptide 3 (100 nM in 10 mM sodium acetate pH 4.5) was conjugated via its C-terminal cysteine to PDEA. The chip was then blocked using 40 mM L-cysteine in 10 mM sodium acetate pH 4.0 and 1 M ethanolamine pH 8.2. A blank derivatised channel was used as the control channel.
Samples of antibody 6B3 (20.8 nM-667 nM) were injected (30 μL at 10 μL/min) in HBS buffer over immobilized peptide 3. Specific binding was observed as compared to the blank channel and then investigated further with smaller overlapping peptide sequences (data not shown).

RTDTIFWPGC = target: T6, RTDTIFWPGC; assay: Biacore, 6B3 at 20.8 nM-667 nM over thiol-immobilised peptide
T6 peptide: RTDTIFWPGC

[7] = target: T7, PDGF-C peptide epitope SVSIREELKC (human); assay: as above
T7 construct: Synthesised with a C-terminal cysteine for thiol immobilisation on the sensor chip
T7 peptide: SVSIREELKC

[8] = target: T8, overlapping PDGF-C peptide EELKRTDTIFC (human); assay: as above
T8 construct: Synthesised with a C-terminal cysteine for thiol immobilisation
T8 peptide: EELKRTDTIFC

[9] = target: T1, recombinant human PDGF-AA; assay: ELISA, PDGF ligands coated at 1 µg/ml, purified mAb at 1.5 µg/ml
Experimental: (§1) Following immunisation of mice and splenic fusions by standard procedures, the supernatant of 16 hybridomas were initially assessed for PDGF-CC binding specificity by ELISA and Western analysis. A sensitive ELISA assay was employed to explore this using commercially available PDGF-AA, PDGF-BB, PDGF-DD and recombinant PDGF-CC. Specifically, antigen immobilization of purified recombinant human PDGF ligands, PDGF-AA, BB, CC and DD diluted in 100 mM NaHCO₃ at the concentration of 1μg/ml, was performed overnight at +4° C. Thereafter, all incubations were done at room temperature 1.5-2 hours and washes carried out with PBS. In triplicate, hybridoma supernatants were applied at a dilution of 1:2 in PBS/1% bovine serum albumin (BSA), or purified monoclonal antibody (mAbs) was added (1.5μg/ml in 3% BSA). A rabbit polyclonal IgG—purified antibody was used as positive control (4 μg/ml). Binding was detected with an anti—mouse (or anti—rabbit in control) alkaline phosphatase—conjugated secondary antibody and visualized by incubation with alkaline phosphatase yellow (pNPP) liquid substrate system for ELISA (Sigma—Aldrich). Absorbance was read at 405 nm.

[10] = target: T2, recombinant human PDGF-BB; assay: as above
Experimental: as §1

[11] = target: T4, recombinant human PDGF-DD; assay: as above
Experimental: as §1

[12] = target: T9, mouse PDGF-C core protein (mouse, UniProt Q8CI19 231-345, limits assumed); assay: immunoblot of COS-1 supernatant with mouse PDGF-C core, probed with purified antibody
T9 construct: also called COSmPCcoremedia
T9 sequence (Q8CI19 231-345 limits assumed): as the sequence (Q9NRA1 231-345 limits assumed) above, with R1K, R4K, D7N, T12K, R16K, S69R, R88K, S112N, T113A counted along it
Experimental: To produce the mouse PDGF-CC protein, COS-1 cells were transfected with mouse PDGF-C core plasmid constructed in expression vector pCDNA3.1 (Invitrogen). Transfection using lipofectamine plus reagent (Invitrogen) was performed according to the manufacturer's instructions. Transfected cells were cultured in serum free media. At 24 hours post-transfection, culture supernatant (COSmPCcoremedia) was collected and 30 μl sample was loaded on SDS-PAGE together with human PDGF-C core protein (0.1 μg RhPcc) and proteins separated by SDS-PAGE. Protein was then isolated using standard means.

[13] = target: T3, recombinant human PDGF-CC active core …; assay: SPR, BIAcore 2000, His-tagged PDGF-CC on Ni-NTA chip, antibody as analyte, 1:1 Langmuir fit (apparent)
Experimental: Biosensor analyses were performed on a BIAcore 2000 biosensor using an NTA sensor chip. Briefly, a NTA sensor chip was loaded with Ni 2+ and used to immobilize histidine tagged PDGF-CC ligand. The PDGF-CC antibodies were passed over the chip at varying concentrations in order to determine apparent affinity (KD). Chips were regenerated with EGTA. The chip was re-equilibrated by washing with HBS (containing no EDTA) before further analyses. Using BIAevaluation software, a 1:1 Langmuir binding analysis model was used to estimate the apparent association (ka) and disassociation (kd) rate constants for each set of antibody experiments.

[14] = target: T4, recombinant human PDGF-DD; assay: immunoblot of recombinant PDGF-D after SDS-PAGE, probed with hybridoma supernatant, exposure 10 seconds
monoclonal antibody 6B3 = target: B2; assay: Biacore competition: 6B3 (333 nM) with soluble peptide injected over immobilised PDGF-CC core protein, maximum response plotted
Experimental: Biosensor analyses were performed on a BlAcore 2000 biosensor using a carboxymethyldextran-coated sensor chip (Xantec CMD). The chip was derivatised on channel 2 with the PDGF-CC core antigen (60 μg/mL) using standard amine coupling chemistry (0.05M NHS/0.2M EDC). Channel 1 was derivatised with ethanolamine and used as a blank control channel for correction of refractive index effects.
After the injection phase, the dissociation was monitored by flowing HBS buffer over the chip surface for 360s. Bound antibody was eluted and the chip surface regenerated between samples by injection of 30 μl of 10 mM Glycine pH 2.0

Binder | binding result [9] | binding result [10] | binding result [11] | Kd [13] [nM] | koff [13] [s⁻¹] | kon [13] [M⁻¹ s⁻¹] | also measured
B1 |  |  |  |  |  |  | binding result [1]: no binding; binding result [2]: no binding; binding result [3]: binds; binding result [4]: no binding
B2 | no binding (tested: 1.5 µg/ml) | no binding (tested: 1.5 µg/ml) | no binding (tested: 1.5 µg/ml) | 0.9 | 0.0015 | 1.8e+06 | binding result [5]: no binding (tested: 1.334 µM (legend; paragraph 184 says 667 nM)); binding result [6]: binds; binding result (RTDTIFWPGC): binds; binding result [7]: binds; binding result [8]: no binding (tested: 667 nM); binding result [12]: no binding
B3 | no binding (tested: 1.5 µg/ml) | no binding (tested: 1.5 µg/ml) |  | 1.05 | 0.00058 | 640000 | binding result [14]: no binding
B4 | no binding (tested: 1.5 µg/ml) | no binding (tested: 1.5 µg/ml) | no binding (tested: 1.5 µg/ml) | 0.7 | 0.0016 | 2.2e+06 | 
B5 |  |  |  | 0.7 | 0.00041 | 600000 | binding result [1]: no binding; binding result [2]: no binding; binding result [4]: no binding
B6 |  |  |  |  |  |  | binding result (monoclonal antibody 6B3): binds
B7 | no binding (tested: 1.5 µg/ml) | no binding (tested: 1.5 µg/ml) | no binding (tested: 1.5 µg/ml) | 2.2 | 0.0002 | 90000 | 

— US20220275075A1 (PARACRINE THERAPEUTICS, published 2022)
